Patent publication US7361735B2, “LITAF binding site peptides and methods of using the same” (Trustees of Boston University, priority 2003, dated 2008)

Tested on: wtTNFβ, TNF-α promoter from −991 to 1
Assay: Luciferase reporter assay, wild-type TNF-α promoter, WTK-1
Format: cell-based
Conditions: WTK-1 cells; normalized to β-gal; LITAF overexpressed alone without LPS stimulation
Source text: FIG. 10 is a graphical representation of the analysis of LITAF function in luciferase reporter constructs. The series of TNF-α promoter DNA fragments were subcloned into the pGL3 basic vector (Pharmacia), a promoterless and enhancerless luciferase reporter gene. One construct, named wtTNFβ, contained TNF-α promoter from −991 to 1. Another one, mtTNFβ1, was a mutant inserted with the promoter from −991 to 1, but lacking the LITAF binding site. WTK-1 cells (grown to 85% confluence) in a 6-well plate at 1.2×10^5 cells/well were co-transfected with 1 μg DNAs including pCMV-LITAF recombinant vector, pVMVβ-gal and pGL3 basic as control by Fugene 6 (Roche Molecular Biochemicals) for 3 hrs, washed with PBS twice, then individually stimulated with LPS or Chariot/peptide complex of 100 ng/ml peptide B (peptide fragment of LITAF representing aa 152-228) or HA as control for 3 hrs, washed with PBS, incubated at 37° C., 5% CO2, o/n. The β-galactosidase gene was included in all transfections. The cells were harvested and lysed approximately 12 hrs after transfection. The promoter activity from each lysate sample was measured using the luciferase reporter assay system (Promega) and normalized to β-gal expression in the same sample, as described in the methods section below.
The activation of TNF-α gene expression by LITAF was investigated. […]

TNF-α promoter activity (luciferase), wild-type promoter/reporter plasmid: 2.5 fold
B1: exogenous LITAF: full-length human LITAF (SEQ ID NO. 1) overexpressed from the pCMV-LITAF recombinant vector (protein, listed as Homo sapiens)
chain: MSVPGPYQAATGPSSAPSAPPSYEETVAVNSYYPTPPAPMPGPTTGLVTGPDGKGMNPPSYYTQPAPIPNNNPITVQTVYVQHPITFLDRPIQMCCPSCNKMIVSQLSYNAGALTWLSCGSLCLLGVHSGLLLHPLLRGCPAGRGPLLSQLQSSPGHLQAFVGLSQTWREPGAAGSPFHLSSSFTPGGGSALVVSPLQGAHLHVFFWGEYVAKLTNLQTPEIAAWSRA
